Data reported in paper PMC11919764, “Cryo-electron tomography reveals how COPII assembles on cargo-containing membranes” (Nature Structural & Molecular Biology, 2024).

Target: T1, Sec24 (S. cerevisiae, UniProt P40482 1-926)
T1 construct: Sec24, S. cerevisiae; The Sec24 chain of m2; in the assays it stood in the Sec23–Sec24 complex
T1 sequence: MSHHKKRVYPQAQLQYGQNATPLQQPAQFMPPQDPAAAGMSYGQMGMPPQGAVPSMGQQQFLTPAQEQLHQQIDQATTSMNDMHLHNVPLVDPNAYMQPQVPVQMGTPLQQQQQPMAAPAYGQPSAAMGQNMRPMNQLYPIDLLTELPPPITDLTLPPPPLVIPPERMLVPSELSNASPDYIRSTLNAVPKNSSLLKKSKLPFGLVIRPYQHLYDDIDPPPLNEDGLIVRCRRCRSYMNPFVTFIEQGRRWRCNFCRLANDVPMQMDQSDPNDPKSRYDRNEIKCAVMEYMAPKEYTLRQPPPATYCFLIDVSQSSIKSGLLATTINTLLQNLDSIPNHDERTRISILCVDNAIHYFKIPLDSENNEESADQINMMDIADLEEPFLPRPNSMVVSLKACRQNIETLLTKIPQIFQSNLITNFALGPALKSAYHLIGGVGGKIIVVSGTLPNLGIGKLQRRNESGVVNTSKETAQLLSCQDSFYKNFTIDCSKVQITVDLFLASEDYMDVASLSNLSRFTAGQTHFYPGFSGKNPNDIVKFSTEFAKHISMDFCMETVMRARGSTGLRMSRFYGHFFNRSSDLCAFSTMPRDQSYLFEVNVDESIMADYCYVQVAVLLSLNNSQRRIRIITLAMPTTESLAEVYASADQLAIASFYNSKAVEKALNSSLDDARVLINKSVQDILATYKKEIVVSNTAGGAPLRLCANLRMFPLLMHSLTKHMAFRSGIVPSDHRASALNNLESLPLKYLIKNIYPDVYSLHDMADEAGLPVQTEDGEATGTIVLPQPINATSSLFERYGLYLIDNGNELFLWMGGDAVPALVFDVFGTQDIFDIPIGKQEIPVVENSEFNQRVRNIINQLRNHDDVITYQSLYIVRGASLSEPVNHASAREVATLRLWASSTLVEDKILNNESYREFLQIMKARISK
Experiment: cryo-EM structure; cryo-ET with subtomogram averaging of COPII budding reactions on GUVs enriched with Sed5 held by its 6xHis-tag on Ni-NTA lipids: 1 μM Sar1, 180 nM Sec23–Sec24, 173 μM Sec13–Sec31, 360 nM Sed5, 1 mM GMP-PNP, 2.5 mM EDTA (pH 8.0), 10% GUVs (v/v); coated tubes; atomic models rigid-body fitted
Details: both partners purified

binding result: binds
B1: Sed5 cytosolic domain (residues 1–319) with C-terminal 6xHis-tag (domain or fragment, S. cerevisiae)
chain: MNIKDRTSEFQQSVLSYKKRNKNFREQQRERLQEKESENFANNTTGNGKSVSEFQKKASGIAHEISSTAQLLSKLAVLAKRKPMFNDNPVEIAELSFLIKRKIYAIEQSLVQLSQLKKTDVNGNTSNQSSKQPSAVQHSKNVVNLLNTQMKNISGSFKDVLEERQRLEMANKDRWQKLTTDTGHAPADDQTQSNHAADLTTYNNSNPFMTSLLDESSEKNNNSSNQGELSFPQNDSQLMLMEEGQLSNNVYLQERNRAVETIESTIQEVGNLFQQLASMVQEQGEVIQRIDANVDDIDLNISGAQRELLKYFDRIKSNRGGG
notes: Sed5, S. cerevisiae S288c, UniProt Q01590, residues 1–319 (transmembrane helix truncated); flexible triple-glycine linker between residue 319 of Sed5 and the 6xHis-tag; Held on GUVs through Ni-NTA tagged lipids by its C-terminal 6xHis-tag, which stands in place of the transmembrane domain; also called 6xHis-tagged Sed5; source: E. coli BL21, purified (Ni-NTA, HiTrap Q, Superdex 200); not shown: …
